# Measured values as given in publication PMC2992532, “A tryptophan-rich peptide acts as a transcription activation domain” (BMC Molecular Biology, 2010).
# T1: LexA-TFIIB fusion protein (UniProt P29055 1-345)
# T1 sequence (looked up): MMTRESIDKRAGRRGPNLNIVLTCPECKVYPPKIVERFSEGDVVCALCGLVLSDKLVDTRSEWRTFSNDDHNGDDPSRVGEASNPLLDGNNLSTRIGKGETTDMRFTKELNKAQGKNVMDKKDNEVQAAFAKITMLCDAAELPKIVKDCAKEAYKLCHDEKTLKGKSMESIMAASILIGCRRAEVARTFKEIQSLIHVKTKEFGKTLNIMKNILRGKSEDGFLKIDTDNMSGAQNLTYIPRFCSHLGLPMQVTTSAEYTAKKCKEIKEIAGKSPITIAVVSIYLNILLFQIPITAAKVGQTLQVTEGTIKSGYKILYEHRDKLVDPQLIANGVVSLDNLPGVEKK
# Biological target: T1, LexA-TFIIB fusion protein
# Assay: cell-based or functional assay
binder,measurement,value
"WWWWWWW [B42-W7 fusion protein (heptatryptophan, W7)]","transcriptional activity (beta-gal reporter) of W7 fused to LexA, relative to the native pentapeptide WYDWW fused to LexA",~3 fold
